Measurements reported in the supplement of paper PMC9233669.
This sample holds only a part of the variants without activity.

Tested on: biotinyl-Phe-oxazolone
Experiment: self-aminoacylation, catalytic enhancement (BFO) (fold over background); higher = more active; k-Seq, kA / k0A0; sequences stand for … in GGGAAUGGAUCCACAUCUACGAAUUC…UUCACUGCAGACUUGACGAAGCUG
In short: (§1)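 Each biotinyl-aminoacyl-oxazolone, at 2–1250 μM, was incubated with mutagenized RNA pools (0.43 μM) carrying a 21-nt variable region. The 50 μL reactions contained HEPES/NaCl/KCl/MgCl2/CaCl2 buffer with 5% acetonitrile at pH 6.9–7.0 and ran for 90 minutes at room temperature. After streptavidin capture, RNA was measured by qPCR in triplicate and by Illumina sequencing, and catalytic enhancement was calculated as median kA over the uncatalyzed rate from a pseudo-first-order fit of per-sequence fraction reacted.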

**Q.** “AAAUUUGCUAAUAGUCGGAAG [Fam3.1 aminoacylation ribozyme variant]” was tested. Which self-aminoacylation did it give?
**A.** 2.57

**Q.** With “AAGAUUGCUAACAGUCGCAAG [Fam3.1 aminoacylation ribozyme variant]” as the sequence, how does the self-aminoacylation read?
**A.** 2.49

**Q.** “AAGAUUGCUAAUAGUCGCAAC [Fam3.1 aminoacylation ribozyme variant]” was tested. Which self-aminoacylation did it give?
**A.** 2.08

**Q.** Which self-aminoacylation does the source give for “AAGAUUGCUGAUAGUCGCAAG [Fam3.1 aminoacylation ribozyme variant]” here?
**A.** 2.57

**Q.** For “AAGUCUGCUAAUAGUCGCAAA [Fam3.1 aminoacylation ribozyme variant]”, which self-aminoacylation is on record?
**A.** 2.14

**Q.** For “AAGUGUGCUAAUAGUGGCAAG [Fam3.1 aminoacylation ribozyme variant]”, which self-aminoacylation is on record?
**A.** 2.86

**Q.** How did the self-aminoacylation turn out when “AAGUUAGCUAAUAGUCGCUAG [Fam3.1 aminoacylation ribozyme variant]” was run?
**A.** 2.36

**Q.** Which self-aminoacylation does the source give for “AAGUUAGUUAAUAGUCGCAAG [Fam3.1 aminoacylation ribozyme variant]” here?
**A.** 2.7

**Q.** How did the self-aminoacylation turn out when “AAGUUGGCUAAUAGUCCCAAG [Fam3.1 aminoacylation ribozyme variant]” was run?
**A.** 2.06

**Q.** For “AAGUUUCAUAAUAGUCGCAAG [Fam3.1 aminoacylation ribozyme variant]”, which self-aminoacylation is on record?
**A.** 2.19

**Q.** How did the self-aminoacylation turn out when “AAGUUUCCUAAUAGUCGCCAG [Fam3.1 aminoacylation ribozyme variant]” was run?
**A.** 2.94

**Q.** With “AAGUUUCCUACUAGUCGCAAG [Fam3.1 aminoacylation ribozyme variant]” as the sequence, how does the self-aminoacylation read?
**A.** 2.54

**Q.** “AAGUUUCCUUAUAGUCGCAAG [Fam3.1 aminoacylation ribozyme variant]” was tested. Which self-aminoacylation did it give?
**A.** 2.75

**Q.** How did the self-aminoacylation turn out when “AAGUUUGAUAAUAGUCGCAAU [Fam3.1 aminoacylation ribozyme variant]” was run?
**A.** 2.12

**Q.** For “AAGUUUGCGAAUAGCCGCAAG [Fam3.1 aminoacylation ribozyme variant]”, which self-aminoacylation is on record?
**A.** 4.03

**Q.** “AAGUUUGCGAAUAGGCGCAAG [Fam3.1 aminoacylation ribozyme variant]” was tested. Which self-aminoacylation did it give?
**A.** 9.76

**Q.** Which self-aminoacylation does the source give for “AAGUUUGCUAACAGUCGGAAG [Fam3.1 aminoacylation ribozyme variant]” here?
**A.** 6.87

**Q.** For “AAGUUUGCUAAUAGCCGCAAU [Fam3.1 aminoacylation ribozyme variant]”, which self-aminoacylation is on record?
**A.** 2.22

**Q.** Which self-aminoacylation does the source give for “AAGUUUGCUAAUAGUCAAAAG [Fam3.1 aminoacylation ribozyme variant]” here?
**A.** 3.26

**Q.** With “AAGUUUGCUAAUAGUUGCGAG [Fam3.1 aminoacylation ribozyme variant]” as the sequence, how does the self-aminoacylation read?
**A.** 2.61

**Q.** How did the self-aminoacylation turn out when “AAGUUUGCUAAUGGUCGCAAU [Fam3.1 aminoacylation ribozyme variant]” was run?
**A.** 3.15

**Q.** With “AAGUUUGCUGAUAGUCGCAGG [Fam3.1 aminoacylation ribozyme variant]” as the sequence, how does the self-aminoacylation read?
**A.** 2.42

**Q.** With “AAGUUUGGUAAUAGUCGCGAG [Fam3.1 aminoacylation ribozyme variant]” as the sequence, how does the self-aminoacylation read?
**A.** 2.51

**Q.** How did the self-aminoacylation turn out when “AAGUUUGUUCAUAGUCGCAAG [Fam3.1 aminoacylation ribozyme variant]” was run?
**A.** 2.01

**Q.** For “AAGUUUUCAAAUAGUCGCAAG [Fam3.1 aminoacylation ribozyme variant]”, which self-aminoacylation is on record?
**A.** 2.08

**Q.** “AAGUUUUCUAAUAGUCGAAAG [Fam3.1 aminoacylation ribozyme variant]” was tested. Which self-aminoacylation did it give?
**A.** 2

**Q.** How did the self-aminoacylation turn out when “AAGUUUUCUAAUAGUCGCUAG [Fam3.1 aminoacylation ribozyme variant]” was run?
**A.** 2.43

**Q.** For “AAGUUUUCUAAUAGUCGUAAG [Fam3.1 aminoacylation ribozyme variant]”, which self-aminoacylation is on record?
**A.** 2.29

**Q.** For “AAGUUUUCUAAUAGUUGCAAG [Fam3.1 aminoacylation ribozyme variant]”, which self-aminoacylation is on record?
**A.** 2.94

**Q.** For “AAUCACCUAGGUCAUCGUGUG [Fam2.2 aminoacylation ribozyme variant]”, which self-aminoacylation is on record?
**A.** 5.37

**Q.** “AAUUUUGCUAAUAAUCGCAAG [Fam3.1 aminoacylation ribozyme variant]” was tested. Which self-aminoacylation did it give?
**A.** 2.03

**Q.** For “ACGUUUGCUAAUAGUCCCAAG [Fam3.1 aminoacylation ribozyme variant]”, which self-aminoacylation is on record?
**A.** 2

**Q.** Which self-aminoacylation does the source give for “AGUACCCUGGUCAUCGAGUGC [Fam2.1 aminoacylation ribozyme variant]” here?
**A.** 2.36

**Q.** How did the self-aminoacylation turn out when “AUGCACCUAGGUCAUCGGGUC [Fam2.2 aminoacylation ribozyme variant]” was run?
**A.** 7.15

**Q.** Which self-aminoacylation does the source give for “AUGUUUGCGAAUAGUCGCAAG [Fam3.1 aminoacylation ribozyme variant]” here?
**A.** 2.47

**Q.** With “AUGUUUGUUAAUAGUCGCAAG [Fam3.1 aminoacylation ribozyme variant]” as the sequence, how does the self-aminoacylation read?
**A.** 2.31

**Q.** For “AUUACCCUGGCCAUCGACUGA [Fam2.1 aminoacylation ribozyme variant]”, which self-aminoacylation is on record?
**A.** 2.83

**Q.** Which self-aminoacylation does the source give for “AUUACCCUGGUCAUCAAGUGU [Fam2.1 aminoacylation ribozyme variant]” here?
**A.** 2.34

**Q.** With “AUUAGCUUGGUCAUCGAGUGA [Fam2.1 aminoacylation ribozyme variant]” as the sequence, how does the self-aminoacylation read?
**A.** 2.2

**Q.** How did the self-aminoacylation turn out when “AUUCACCAAGGUCAUCGGGUC [Fam2.2 aminoacylation ribozyme variant]” was run?
**A.** 3.27

**Q.** “AUUCACCUAGGUCAUCAUGUG [Fam2.2 aminoacylation ribozyme variant]” was tested. Which self-aminoacylation did it give?
**A.** 2.12

**Q.** How did the self-aminoacylation turn out when “AUUCACCUAGGUCGUCGGGUU [Fam2.2 aminoacylation ribozyme variant]” was run?
**A.** 3.1

**Q.** Which self-aminoacylation does the source give for “AUUCACCUAGGUUAUCGUGUG [Fam2.2 aminoacylation ribozyme variant]” here?
**A.** 2.6

**Q.** With “AUUCACCUCGGUCAUCGUGUG [Fam2.2 aminoacylation ribozyme variant]” as the sequence, how does the self-aminoacylation read?
**A.** 3.14

**Q.** “AUUCACCUGGGUCAUCGGGUC [Fam2.2 aminoacylation ribozyme variant]” was tested. Which self-aminoacylation did it give?
**A.** 5.84

**Q.** Which self-aminoacylation does the source give for “AUUCACCUGGGUCAUCGUGUG [Fam2.2 aminoacylation ribozyme variant]” here?
**A.** 4.81

**Q.** For “AUUCUCCUAGGUCAUCGGUUG [Fam2.2 aminoacylation ribozyme variant]”, which self-aminoacylation is on record?
**A.** 6.63

**Q.** How did the self-aminoacylation turn out when “AUUGCCCUGGUCGUCGAGUGA [Fam2.1 aminoacylation ribozyme variant]” was run?
**A.** 8.62

**Q.** “AUUUACCUAGGUCAUCGGCUG [Fam2.2 aminoacylation ribozyme variant]” was tested. Which self-aminoacylation did it give?
**A.** 2.16

**Q.** How did the self-aminoacylation turn out when “CAGUUUGCUAAGAGUCGCAAG [Fam3.1 aminoacylation ribozyme variant]” was run?
**A.** 2.85

**Q.** For “CAGUUUGCUAAUAGUCCCAAG [Fam3.1 aminoacylation ribozyme variant]”, which self-aminoacylation is on record?
**A.** 2.32

**Q.** Which self-aminoacylation does the source give for “CAGUUUGCUAAUAGUCGCAAC [Fam3.1 aminoacylation ribozyme variant]” here?
**A.** 2.78

**Q.** Which self-aminoacylation does the source give for “CAGUUUGCUAAUAGUCGCAGG [Fam3.1 aminoacylation ribozyme variant]” here?
**A.** 3.45

**Q.** For “CAGUUUUCUAAUAGUCGCAAG [Fam3.1 aminoacylation ribozyme variant]”, which self-aminoacylation is on record?
**A.** 2.91

**Q.** “CCAAACUUCGAGCAAUCGGUC [Fam1B.1 aminoacylation ribozyme variant]” was tested. Which self-aminoacylation did it give?
**A.** 2.34

**Q.** For “CUACUCCAAUCAAUCGGUCUG [Fam1A.1 aminoacylation ribozyme variant]”, which self-aminoacylation is on record?
**A.** 2.36

**Q.** For “CUACUGCAAACACUCGGUCUG [Fam1A.1 aminoacylation ribozyme variant]”, which self-aminoacylation is on record?
**A.** 5.64

**Q.** With “CUACUUCAAACAAGCGGUCGG [Fam1A.1 aminoacylation ribozyme variant]” as the sequence, how does the self-aminoacylation read?
**A.** 3.68

**Q.** For “CUACUUCAAACCAUCGGUCGG [Fam1A.1 aminoacylation ribozyme variant]”, which self-aminoacylation is on record?
**A.** 3.15

**Q.** For “CUAGUUCAAACAUUCGGUCUG [Fam1A.1 aminoacylation ribozyme variant]”, which self-aminoacylation is on record?
**A.** 6.01

**Q.** For “CUAGUUCAGACAAUCGGUCUG [Fam1A.1 aminoacylation ribozyme variant]”, which self-aminoacylation is on record?
**A.** 2.61

**Q.** With “CUGCUUCAAACAAUCGUUCUG [Fam1A.1 aminoacylation ribozyme variant]” as the sequence, how does the self-aminoacylation read?
**A.** 2.08

**Q.** How did the self-aminoacylation turn out when “GAGUUUGCUGAUAGUCGCAAG [Fam3.1 aminoacylation ribozyme variant]” was run?
**A.** 3.71

**Q.** “GUUACCCUGGUCAUCGAUUGA [Fam2.1 aminoacylation ribozyme variant]” was tested. Which self-aminoacylation did it give?
**A.** 2.77

**Q.** For “UUACUUCAAACAAGCGGUCUG [Fam1A.1 aminoacylation ribozyme variant]”, which self-aminoacylation is on record?
**A.** 6.3

**Q.** “UUACUUCAAACAUUCGGUCUG [Fam1A.1 aminoacylation ribozyme variant]” was tested. Which self-aminoacylation did it give?
**A.** 2.03

Tested on: biotinyl-Trp-oxazolone
Experiment: self-aminoacylation, catalytic enhancement (BWO) (fold over background); higher = more active; k-Seq, kA / k0A0; sequences stand for … in GGGAAUGGAUCCACAUCUACGAAUUC…UUCACUGCAGACUUGACGAAGCUG
In short: as §1

**Q.** Which self-aminoacylation does the source give for “AAGAUUGCUAAUAGUCGCCAG [Fam3.1 aminoacylation ribozyme variant]” here?
**A.** 2.02

**Q.** Which self-aminoacylation does the source give for “AAGAUUGCUAAUUGUCGCAAG [Fam3.1 aminoacylation ribozyme variant]” here?
**A.** 3.92

**Q.** For “AAGUGUGCUAAUAGUCGCAAU [Fam3.1 aminoacylation ribozyme variant]”, which self-aminoacylation is on record?
**A.** 2.01

**Q.** Which self-aminoacylation does the source give for “AAGUGUGCUAAUAGUCGCAGG [Fam3.1 aminoacylation ribozyme variant]” here?
**A.** 2.17

**Q.** With “AAGUGUGCUAAUCGUCGCAAG [Fam3.1 aminoacylation ribozyme variant]” as the sequence, how does the self-aminoacylation read?
**A.** 2.44

**Q.** Which self-aminoacylation does the source give for “AAGUUAGCUAGUAGUCGCAAG [Fam3.1 aminoacylation ribozyme variant]” here?
**A.** 2.01

**Q.** “AAGUUAGGUAAUAGUCGCAAG [Fam3.1 aminoacylation ribozyme variant]” was tested. Which self-aminoacylation did it give?
**A.** 2.11

**Q.** How did the self-aminoacylation turn out when “AAGUUUGCUAUUAGUCGCAGG [Fam3.1 aminoacylation ribozyme variant]” was run?
**A.** 2.01

**Q.** For “AUUACCCGGGUCAUCGAGUUA [Fam2.1 aminoacylation ribozyme variant]”, which self-aminoacylation is on record?
**A.** 2.23

**Q.** For “AUUACCCUGGUCAUUGAGUAA [Fam2.1 aminoacylation ribozyme variant]”, which self-aminoacylation is on record?
**A.** 2.02

**Q.** Which self-aminoacylation does the source give for “CCACACUCCGAGCAAUCGGUC [Fam1B.1 aminoacylation ribozyme variant]” here?
**A.** 2.37

**Q.** Which self-aminoacylation does the source give for “CCACACUGCAAGCCAUCGGUC [Fam1B.1 aminoacylation ribozyme variant]” here?
**A.** 2.76
